The record followed here is IntAct's records for PubMed 16099979.

B1: Protein FD (Arabidopsis thaliana (Mouse-ear cress)), Q84JK2 (parent)
chain: MLSSAKHQRNHRLSATNKNQTLTKVSSISSSSPSSSSSSSSTSSSSPLPSQDSQAQKRSLVTMEEVWNDINLASIHHLNRHSPHPQHNHEPRFRGQNHHNQNPNSIFQDFLKGSLNQEPAPTSQTTGSAPNGDSTTVTVLYSSPFPPPATVLSLNSGAGFEFLDNQDPLVTSNSNLHTHHHLSNAHAFNTSFEALVPSSSFGKKRGQDSNEGSGNRRHKRMIKNRESAARSRARKQAYTNELELEVAHLQAENARLKRQQDQLKMAAAIQQPKKNTLQRSSTAPF

In the test the parent is B1. The conditions noted are these: with ft_arath FT.
Consider T282A, for which the “effect of a mutation on the interaction” value is recorded as “decreasing interaction”.

Regarding T282S, the “effect of a mutation on the interaction” value is on record as “decreasing interaction”.
